For orientation: Kd means the free concentration of one partner at which half of the binding sites on the other are occupied at equilibrium, for simple one-to-one binding. Read a low Kd as higher affinity.

Experiment [1] has as its target Pwl2-2 (Magnaporthe oryzae). The experiment in a line: ITC.
Experiment [2] concerns the target Pwl2-3 (Magnaporthe oryzae). As to the kind of experiment: ITC. Background: Isothermal titration calorimetry measures the heat released or taken up as one component is titrated into another.

Turning to “HMA domain of OsHIPP43 (residues 26-101) (from UniProt Q8LJL3 26-101) (domain or fragment)”, the Kd in experiment [1] came out at 141 nM; in experiment [2], 35 nM.

These data come from paper doi:10.1101/2024.01.20.576400 (bioRxiv, 2024).
